Measured values from publication PMC4510971.

Assays:
Experiment in all cases: ITC; 0.450 mM UBN1 injected into a cell with 30 μM H3/H4, 22 °C; 20 mM HEPES pH 7.5, 750 mM NaCl, 1 mM TCEP
[1] = molecular target: H3.3(G90M)/H4 (human | X. laevis) (UniProt P62799)
[2] = molecular target: Asf1(1–169)/H3.3(60–135)/H4(20–102) (S. cerevisiae | X. laevis) (UniProt P32447)
[3] = molecular target: H3.3(SAVM)/H4 (human | X. laevis) (UniProt P84243)

UBN1(122–148) peptide, sequence (Q9NPG3 122-148): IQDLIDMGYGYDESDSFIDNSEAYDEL

## UBN1(122–148) peptide (from UniProt Q9NPG3 122-148)
[1]
  fold decrease in binding relative to H3.3 WT: 3 fold
[2]
  Kd: 110 µM
[3]
  fold decrease in binding relative to H3.3 WT: 3 fold
